Tested on: T1, cleavable peptide CP(AQ), Lys(AQ)SerGlyProLeuGlyValArgGlySerSerCys
T1 sequence: KSGPLGVRGSSC

purified, recombinant MMP2 (BioLegend, #554304)
proteolytic cleavage followed by thin layer chromatography: after the incubation of CP(AQ) with MMP2, the compound was able to shift organic solution, with a transformed behavior from hydrophilic to hydrophobic

Source: patent publication US20190256597
